Reference: patent US20210340252A1 (WUXI BIOLOGICS IRELAND, published 2021)

B1: W3405-2.61.21-uAb-hIgG4.SPK (V87E) (antibody, V domains shown)
VH: EVQLLEAGGGPVQPGGSLRLSCAAAGFTFSNYAMSWVRQAPGKGLEWVSSISDNGGTAYHADSVQGRFTISRDNSKSTLYLQMNSLRAEDTAVYYCAKDFGDSPGYWGQGTLVTVSS
VL: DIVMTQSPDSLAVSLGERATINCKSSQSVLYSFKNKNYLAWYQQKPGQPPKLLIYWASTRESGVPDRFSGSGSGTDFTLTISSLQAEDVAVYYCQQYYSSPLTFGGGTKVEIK
notes: Human IgG4 (S228P) heavy constant region and kappa light chain; also called mutant_3
B2: W3405-2.61.21-uAb-p1-hIgG4.SPK (antibody, V domains shown)
VH: EVQLLEAGGGPVQPGGSLRLSCAAAGFTFSNYAMSWVRQAPGKGLEWVSSISDQGGTAYHADSVQGRFTISRDNSKSTLYLQMNSLRAEDTAVYYCAKDFGDSPGYWGQGTLVTVSS
VL: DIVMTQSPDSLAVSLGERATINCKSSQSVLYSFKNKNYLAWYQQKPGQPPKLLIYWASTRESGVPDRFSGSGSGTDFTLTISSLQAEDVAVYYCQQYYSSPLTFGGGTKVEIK
notes: Fully human antibody; Constant region of human IgG4 (S228P) heavy chain and human kappa light chain; also called W3405 lead antibody; p1 variant (N→Q)

Legend:
[1] = biological target: T1, hTIM-3.ECD.MBPHis (human, UniProt Q8TDQ0 22-202); experiment: SPR Biacore 8K, antibody captured on anti-human IgG Fc CM5 chip, hTIM-3.ECD.MBPHis as analyte, 1:1 fit
T1 construct: extracellular domain; Made in Expi293 cells; also called human TIM-3.ECD.MBPAVIHIS; not shown: C-terminal MBP / AVI / 6xHis tag

[2] = biological target: T2, CynoTIM-3.ECD.Fc (cynomolgus monkey, UniProt A0A2K5U3G7 22-195); experiment: SPR Biacore 8K, cynoTIM-3.ECD.Fc immobilised on CM5 chip, antibody as analyte (avidity), 1:1 fit
T2 construct: extracellular domain; also called Cynomolgus TIM-3, hFc tag; not shown: Fc tag
T2 sequence: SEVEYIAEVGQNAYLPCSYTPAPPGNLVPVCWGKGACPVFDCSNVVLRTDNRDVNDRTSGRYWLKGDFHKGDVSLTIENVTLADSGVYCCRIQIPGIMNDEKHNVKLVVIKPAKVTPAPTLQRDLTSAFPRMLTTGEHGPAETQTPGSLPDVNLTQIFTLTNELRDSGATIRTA

[3] = biological target: human TIM-3 protein (coated on ELISA plates) (human, UniProt Q8TDQ0 22-200, limits assumed); experiment: competition ELISA on plate-coated human TIM-3 against biotinylated WBP340-BMK8, detection with SA-HRP
[4] = biological target: T3, mFc-tagged human TIM-3 (human, UniProt Q8TDQ0 22-202, limits assumed); experiment: competition, flow cytometry: antibody pre-mixed with mFc-tagged human TIM-3, binding of TIM-3 to PtdSer on apoptotic Jurkat cells, PE anti-mouse IgG Fc; blockade of TIM-3 binding to PtdSer on apoptotic Jurkat cells
T3 construct: the assay text only says mFc-tagged human TIM-3; also called hTIM-3.ECD.mFc; not shown: mouse Fc tag at the C-terminus

[5] = biological target: T4, human TIM-3, full length, on cells (human, UniProt Q8TDQ0 22-301); experiment: flow cytometry on hTIM-3-expressing transfectant cells, PE goat anti-human IgG-Fc
T4 construct: whole, on cells; also called hTIM-3; cell surface human TIM-3

[6] = biological target: T5, Human TIM-1, His tag (human, UniProt Q96D42 21-293, limits assumed); experiment: ELISA, plates coated with human TIM-1
T5 construct: Bought protein
T5 sequence (looked up): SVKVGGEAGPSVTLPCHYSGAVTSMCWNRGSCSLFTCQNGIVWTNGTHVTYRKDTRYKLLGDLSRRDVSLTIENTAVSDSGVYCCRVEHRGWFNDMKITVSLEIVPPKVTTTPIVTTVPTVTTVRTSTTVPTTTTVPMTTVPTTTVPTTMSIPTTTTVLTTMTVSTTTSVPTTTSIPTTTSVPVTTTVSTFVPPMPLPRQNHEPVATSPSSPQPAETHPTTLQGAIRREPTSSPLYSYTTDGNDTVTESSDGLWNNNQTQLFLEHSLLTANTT

[7] = biological target: T4, human TIM-3, full length, on cells; experiment: FACS binding titration on human TIM-3 transfected cells after incubation of the antibody in human serum
[8] = biological target: T6, Human TIM-4, His tag (human, UniProt Q96H15 25-315, limits assumed); experiment: ELISA, plates coated with human TIM-4
T6 construct: Bought protein
T6 sequence (looked up): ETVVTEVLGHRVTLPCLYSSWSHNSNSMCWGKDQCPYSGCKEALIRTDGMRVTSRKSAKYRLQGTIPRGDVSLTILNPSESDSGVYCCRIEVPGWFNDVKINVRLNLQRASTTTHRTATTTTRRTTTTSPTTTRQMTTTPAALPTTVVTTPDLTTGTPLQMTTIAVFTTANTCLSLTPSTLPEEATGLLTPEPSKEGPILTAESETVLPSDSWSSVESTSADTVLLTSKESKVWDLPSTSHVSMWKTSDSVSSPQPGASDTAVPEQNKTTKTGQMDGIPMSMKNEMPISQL

[9] = biological target: T7, cynomolgus monkey TIM-3, full length, on transfected cells (cynomolgus monkey, UniProt A0A2K5U3G7 22-294); experiment: flow cytometry on cynoTIM-3-expressing transfectant cells, PE goat anti-human IgG-Fc
T7 construct: whole, on cells; cynoTIM-3-expressing transfectant cells; also called cynoTIM-3
T7 sequence: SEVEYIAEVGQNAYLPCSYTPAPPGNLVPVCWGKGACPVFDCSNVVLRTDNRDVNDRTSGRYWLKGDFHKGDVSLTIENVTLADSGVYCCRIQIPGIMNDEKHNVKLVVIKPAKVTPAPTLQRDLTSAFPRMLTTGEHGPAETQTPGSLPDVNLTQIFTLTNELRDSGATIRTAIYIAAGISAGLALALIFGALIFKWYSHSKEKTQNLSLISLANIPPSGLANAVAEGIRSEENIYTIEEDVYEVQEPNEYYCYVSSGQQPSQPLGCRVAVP

[10] = biological target: T4, human TIM-3, full length, on cells; experiment: FACS on PHA-activated human CD4+ T cells (natural TIM-3), detection with PE goat anti-human IgG Fc, MFI

Row | Binder | Kd [1] [nM] | koff [1] [s⁻¹] | kon [1] [M⁻¹ s⁻¹] | Kd [2] [nM] | koff [2] [s⁻¹] | kon [2] [M⁻¹ s⁻¹] | IC50 (read off the curve) [3] [nM] | IC50 [4] [nM] | EC50 [5] [nM] | binding result [6] | EC50 (read off the curve) [7] [nM] | binding result [8] | EC50 [9] [nM] | EC50 [10] [nM]
1 | B1 | 0.153 | 3.18e-05 | 208000 | 0.00452 | 7.49e-06 | 1.66e+06 |  |  |  |  |  |  |  | 
2 | B2 | 0.138 | 3.2e-05 | 232000 | 0.006 | 1.73e-05 | 2.89e+06 | ~0.8 | 20 | 0.13 | no binding | ~0.4 | no binding | 0.99 | 0.096
